Test results reported in patent US20100203041A1 (Genentech, published 2010).

T1: recombinant mouse EGFL7 (mouse, UniProt Q9QXT5 22-275, limits assumed)
T1 construct: also called mEGFL7; poly-His-tagged EGFL7
T1 sequence (looked up): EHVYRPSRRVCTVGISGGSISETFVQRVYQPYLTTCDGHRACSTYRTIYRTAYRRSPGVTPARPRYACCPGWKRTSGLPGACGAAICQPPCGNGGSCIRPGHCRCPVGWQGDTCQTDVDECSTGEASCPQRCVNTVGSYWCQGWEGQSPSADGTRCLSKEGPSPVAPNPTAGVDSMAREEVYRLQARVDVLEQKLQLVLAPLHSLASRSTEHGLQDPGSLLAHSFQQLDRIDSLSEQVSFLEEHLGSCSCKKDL

T2: recombinant human EGFL7 (human, UniProt Q9UHF1 24-273, limits assumed)
T2 construct: Produced in E. coli and His6/poly-His-tagged; also called hEGFL7; poly-His-tagged EGFL7
T2 sequence (looked up): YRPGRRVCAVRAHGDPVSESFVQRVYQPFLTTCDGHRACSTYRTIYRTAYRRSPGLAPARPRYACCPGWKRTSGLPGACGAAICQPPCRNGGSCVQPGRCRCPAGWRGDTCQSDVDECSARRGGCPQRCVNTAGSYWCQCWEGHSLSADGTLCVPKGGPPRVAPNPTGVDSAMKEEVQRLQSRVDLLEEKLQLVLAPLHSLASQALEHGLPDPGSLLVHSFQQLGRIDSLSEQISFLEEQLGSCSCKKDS

B1: anti-EGFL7 mumab 4F11.1.8 (antibody, IgG2b, V domains shown)
VH: QIQLVQSGPELKKPGETVKISCKASGHTFTTYGMSWVKQAPGKGLKWMGWINTHSGVPTYADDFKGRFAFSLETSASTAHLQINNLKNEDTATYFCARLGSSAVDYWGQGTTVTVSS
VL: DIVLTQSPASLAVSLGQRATISCKASQSVDYDGDSYMSWYQQKPGQPPKLLIYGASNLESGIPARFSGSGSGTDFTLNIHPVEEEDAATYYCQQNNEDPYTFGGGTKVEIKR
notes: ATCC PTA-7343

Columns and labels:
recombinant mouse EGFL7 = molecular target: T1, recombinant mouse EGFL7; test: SPR, BIAcore 3000, room temperature; antibody on CM5 chip, poly-His-tagged EGFL7 injected; 1:1 global fit; Mab stock in 50 mM Tris/125 mM NaCl
Method: (§1) Binding affinity of the Mabs for both human and mouse EGFL7 was determined by surface plasmon resonance using Pharmacia BIAcore® 3000 (BIAcore AB, Uppsala, Sweden) at room temperature (see, e.g., Morton et al., Meth. Enzymol. 295:268-94 (1998)). Anti-EGFL7 antibodies were immobilized to the sensor chip (CM5) through primary amine groups. The carboxymethylated sensor chip surface matrix was activated by injecting 20 μl of a mixture of 0.025 M N-hydroxysuccinimide and 0.1 M N-ethyl-N′(dimethylaminopropyl) carbodiimide at 5 μl/min 5-10 μl of 10 μg/ml solution of […] in 10 mM sodium acetate, pH 4.5, were injected at 5 μl/min After coupling, unoccupied sites on the chip were blocked by injecting 20 μl of 1M ethanolamine, pH 8.5. The running buffer was PBS containing 0.05% polysorbate 20. For kinetic measurements, two-fold serial dilutions of poly-His-tagged EGFL7 in running buffer were injected over the flow cells for 3 minutes at a flow rate of 30 μl/min and the bound polyhis tagged EGFL7 was allow to dissociate for 20 minutes. The binding surface was regenerated by injecting 20 μl of 10 mM glycine.HCl (pH 1.5). […] There was no significant non-specific binding of poly-His-tagged EGFL7 to flow cell one. For calculating apparent binding affinity, data were analyzed using a 1:1 binding model using global fitting. […]

recombinant human EGFL7 = molecular target: T2, recombinant human EGFL7; test: as above
Method: as §1

[1] = molecular target: B1; test: peptide competition at 10-fold molar excess with EGFL7 protein; immunoprecipitation and SDS-PAGE

| Binder | Kd (recombinant mouse EGFL7) [nM] | Kd (recombinant human EGFL7) [nM] | binding result [1] |
| --- | --- | --- | --- |
| B1 | 0.756 | 0.473 |  |
| RPRYACCPGWKRT [polypeptide p2] |  |  | binds |
